Results from US5747447A, “Stable polypeptide composition” (COR Therapeutics, priority 1995, dated 1998).

How the values were obtained:
[1] = biological target: ADP-induced human platelet aggregation (Homo sapiens, UniProt P05106+P08514); experiment: standard aggregation inhibition assay (ADP-induced human platelet aggregation); assay type: cell-based
Excerpt: 2. Standard assays directly applied to platelet aggregation, such as those described by Gann, Z.-R., et al., J Biol Chem (1988) 263:19827-19832; Huang, T. F., et al., J Biol Chem (1987) 262:16157-16163; Biochemistry (1989) 28:661-666, cited above and incorporated herein by reference;

M21 melanoma cells = experiment: M21 melanoma cell adhesion to vitronectin-coated plates; assay type: cell-based
Method: M21 melanoma cells were labelled with ^35 S-methionine, and then added to vitronectin-coated plates in the presence of the indicated concentrations of purified snake venom peptides. Cell attachment was measured by solubilizing the cells remaining after an incubation and wash, as previously describe.

vitronectin receptor = vitronectin receptor (Homo sapiens, UniProt P05106+P06756); experiment: plate assay, inhibition of vitronectin binding to vitronectin receptor
Excerpt: The PAI assay systems further include characterization of the PAI specificity by binding inhibition assays identical to that above but substituting other adhesive proteins for Fg and other receptors for GP IIb-IIIa. In particular, inhibition of the binding of vitronectin to the vitronectin receptor; fibronectin to the fibronectin receptor; fibronectin to GP IIb-IIIa and fibrinogen and/or vWF to GP IIb-IIIa can be assessed. The adhesive protein and receptors for these assays are available in the art.

Chain of vitronectin receptor (P06756 31-889 limits assumed): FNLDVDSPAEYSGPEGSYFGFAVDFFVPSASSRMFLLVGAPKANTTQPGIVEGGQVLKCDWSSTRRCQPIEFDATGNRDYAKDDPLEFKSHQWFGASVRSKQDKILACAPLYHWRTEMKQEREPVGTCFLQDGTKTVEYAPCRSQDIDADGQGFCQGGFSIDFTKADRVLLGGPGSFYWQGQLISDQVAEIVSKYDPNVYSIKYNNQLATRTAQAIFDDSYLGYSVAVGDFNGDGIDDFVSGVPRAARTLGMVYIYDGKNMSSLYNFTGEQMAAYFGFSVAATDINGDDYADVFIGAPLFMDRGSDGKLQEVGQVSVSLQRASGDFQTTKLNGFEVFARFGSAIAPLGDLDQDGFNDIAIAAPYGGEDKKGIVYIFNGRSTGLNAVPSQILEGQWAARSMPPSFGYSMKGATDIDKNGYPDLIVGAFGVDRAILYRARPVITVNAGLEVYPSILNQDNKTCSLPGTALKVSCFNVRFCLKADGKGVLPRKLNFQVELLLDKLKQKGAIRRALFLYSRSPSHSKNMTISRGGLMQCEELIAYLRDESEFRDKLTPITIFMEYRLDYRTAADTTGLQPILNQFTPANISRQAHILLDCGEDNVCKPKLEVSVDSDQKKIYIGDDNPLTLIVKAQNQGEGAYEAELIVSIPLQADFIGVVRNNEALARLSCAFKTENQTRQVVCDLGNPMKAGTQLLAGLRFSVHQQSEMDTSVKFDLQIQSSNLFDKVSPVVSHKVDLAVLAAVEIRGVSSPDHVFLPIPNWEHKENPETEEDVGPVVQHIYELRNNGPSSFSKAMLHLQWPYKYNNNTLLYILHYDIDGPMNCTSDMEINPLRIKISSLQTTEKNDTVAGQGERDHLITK
Chain of vitronectin receptor (P06756 891-1048 limits assumed): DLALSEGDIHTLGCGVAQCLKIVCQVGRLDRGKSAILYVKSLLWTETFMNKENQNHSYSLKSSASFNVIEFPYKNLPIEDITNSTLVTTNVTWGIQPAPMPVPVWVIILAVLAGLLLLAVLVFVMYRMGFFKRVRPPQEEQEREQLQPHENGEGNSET
Chain of vitronectin receptor (P05106 27-788): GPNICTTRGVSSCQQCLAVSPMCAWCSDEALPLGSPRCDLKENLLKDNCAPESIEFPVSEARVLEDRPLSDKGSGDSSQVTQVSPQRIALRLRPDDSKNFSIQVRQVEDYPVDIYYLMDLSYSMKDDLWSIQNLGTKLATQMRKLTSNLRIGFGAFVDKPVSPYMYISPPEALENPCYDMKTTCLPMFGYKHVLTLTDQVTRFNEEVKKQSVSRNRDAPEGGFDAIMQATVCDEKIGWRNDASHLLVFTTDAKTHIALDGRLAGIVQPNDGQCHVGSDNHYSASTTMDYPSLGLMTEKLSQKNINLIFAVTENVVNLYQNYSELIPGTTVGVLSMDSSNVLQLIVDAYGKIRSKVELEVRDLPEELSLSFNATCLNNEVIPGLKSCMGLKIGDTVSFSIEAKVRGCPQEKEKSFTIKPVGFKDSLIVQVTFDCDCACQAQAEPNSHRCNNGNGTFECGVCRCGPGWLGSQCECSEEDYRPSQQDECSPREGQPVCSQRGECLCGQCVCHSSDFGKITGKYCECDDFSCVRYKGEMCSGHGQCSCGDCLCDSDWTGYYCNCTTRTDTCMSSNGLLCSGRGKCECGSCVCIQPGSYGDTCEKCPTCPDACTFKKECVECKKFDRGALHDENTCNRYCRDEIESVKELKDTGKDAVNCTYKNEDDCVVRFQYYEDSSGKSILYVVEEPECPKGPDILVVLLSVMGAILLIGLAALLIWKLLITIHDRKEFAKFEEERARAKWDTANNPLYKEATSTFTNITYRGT

Molecule	platelet aggregation inhibition activity (in words) [1]	M21 cell attachment to vitronectin (in words) (M21 melanoma cells)	inhibition of vitronectin binding to the vitronectin receptor (in words) (vitronectin receptor)
barbourin (protein) peptide: EAGEECDCGSPENPCCDAATCKLRPGAQCADGLCCDQCRFMKKGTVCRVAKGDWNDDTCTGQSADCPRNGLYG	potent inhibitors of platelet aggregation	Neither barbourin nor Peptide 1 (truncated barbourin) had a significant effect	–
cotiarin (protein) peptide: EAGEECDCGAPENPCCDAATCKLRPGAQCAEGLCCDQCRFKGAGKICRRARGDNPDDRCTGQSADCPRNRFH	–	very potent in inhibiting cell attachment to vitronectin	potent inhibitor
